Entries after “also recorded” stand apart in the source; their conditions may differ.
What was measured:
M. incognita J2 = assay: In vitro assay of M. incognita J2 present in soil mixtures; type: cell-based
Method: The same procedure described above was used to determine the effect of the cysteine proteinases against M. incognita J2 present in soil mixtures. The following soil mixtures were used: fine and coarse sand, peat and fine/coarse sand and loam mix and fine/coarse sand. These soil mixtures were prepared at concentrations of 1:1, 1:3 and 1:6 and autoclaved at […] for 20 min. Peat and loam-mix were obtained from Rothamsted-Research. Soil mixtures were added to 24 well plates (0.5 g) and wetted for 16 hs with either PBS ph 7.2, Tx-100, Milk 5% or cysteine proteinases, in order to wet the soil and block non-specific binding sites present in the soil particles. Then, approximately 100 J2 were added to the wells, followed by cysteine proteinases with 16 mM of L-cysteine to activate the cysteine proteinases or water as control. After 16 hs at room temperature in the dark, individual wells of the 24 well plates were flushed with 1 ml of distilled water to recover the nematodes from the soil mixtures. These were placed in a 24 well plate and the number of dead/live nematodes scored under microscopic observation.
These in vitro experiments were performed in 24 well plates using sterile soil mixtures to diminish the possibility of biological degradation of the enzyme by microorganisms. […] The number of live nematodes was counted before and after enzyme treatment. […]

G. rostochiensis J2s = assay: In vitro mobility and cuticle damage of G. rostochiensis J2s; type: cell-based, Globodera rostochiensis
Method: Eggs of M. incognita race 1 from North Carolina State University, USA, and M. javanica from Portugal were collected from the roots of infected tomato plants grown in a glasshouse at 23° C. in a 16:8 h light-dark regime. Eggs were extracted using 1% hypochlorite (NaClO) solution (Hussey and Barker, 1973) or by picking egg masses from the infected roots. M. incognita and M. javanica were both used in the experiments and produced similar results. Juveniles (J2) were hatched from the eggs and egg masses in water. Globodera rostochiensis cysts were washed extensively in distilled water. Hatched J2s were obtained by incubating cysts in distilled water for 4 days followed by exposure to potato root diffusate (PRD).
Approximately 1000 J2s (second juvenile stage) of M. incognita or M. javanica were incubated per well of a 48-well plate with the following active enzyme concentrations (determined by E-64 titration) of papain dissolved in distilled water containing 16 mM L-cysteine (to activate the cysteine proteinase): 1.5 μM, 3 μM, 6.25 μM, 12.5 μM, 25 μM, 50 μM, 75 μM and 100 μM. […] The number of active J2s per well was counted prior to the addition of papain, and then the J2s were incubated in the dark at room temperature for 3 h. The number of mobile J2s per well was counted after 60, 120 and 180 mins. […]

Meloidogyne spp. eggs = assay: Effect on eggs, hatching and development of Meloidogyne spp.; type: cell-based
Method: To determine if the enzymes affected the eggshell and/or the development and hatching of the juveniles which the eggs contain, approximately 300 Meloidogyne spp. eggs were incubated per well of a 48-well plate, in duplicate, in 50 μM (active enzyme) papain, prepared in 16 mM L-cysteine dissolved in distilled water, or distilled water with and without 16 mM L-cysteine. The number of eggs in each well was counted before the addition of papain and then the eggs were incubated in the dark at room temperature for 4 h. The number of eggs was counted before further incubation overnight. Finally, closer examination of the structure of the nematode eggs was performed using the light microscope at ×40 magnification.

B1: papain (protein, UniProt P00784 134-345, looked up)
Papain: IPEYVDWRQKGAVTPVKNQGSCGSCWAFSAVVTIEGIIKIRTGNLNEYSEQELLDCDRRSYGCNGGYPWSALQLVAQYGIHYRNTYPYEGVQRYCRSREKGPYAAKTDGVRQVQPYNEGALLYSIANQPVSVVLEAAGKDFQLYRGGIFVGPCGNKVDHAVAAVGYGPNYILIKNSWGTGWGENGYIRIKRGTGNSYGVCGLYTSSFYPVKN
notes: cysteine proteinase from Carica papaya, Merops C01.001, Sigma P3125
Question: How did the nematode mortality (M. incognita J2; papain latex 100 μM, 16 hours, all soil mixtures (sand; 1:3 sand/loam mix; 1:3 sand/peat)) turn out when B1 was run?
Answer: 40-50%

Question: What about the “state of the nematodes after two applications of papain to soil” value (M. incognita J2; soil with 16% organic matter wetted with 250 μM papain without L-cysteine, then 250 μM papain in 16 mM L-cysteine, 16 hs) of the same molecule?
Answer: most nematodes were dead

Question: What about the “mobility (proportion of active worms) of G. rostochiensis J2s” value (G. rostochiensis J2s; 25 μM active enzyme) of the same molecule?
Answer: reduction in mobility was significantly greater overall; also recorded: Reductions in the proportion of active worms were evident

Question: And the “incubation needed before damage to the cuticle, compared to Meloidogyne spp.” value (G. rostochiensis J2s; data not shown)?
Answer: needed longer incubation periods

Question: And the “hatching and development of the J2 stage” value (Meloidogyne spp. eggs; incubation of the eggs with enzyme)?
Answer: not affected

Question: And the “effect on eggs / structure of the eggs” value (Meloidogyne spp. eggs; light microscopy, up to overnight incubation)?
Answer: remained unaffected

Source: US20110239327A1, “Nematicidal Effects of Cysteine Proteinases and Methods of Use Thereof to Treat Nematode Infestation” (priority 2007, published 2011)
